Test results taken from patent US20110118131A1 (published 2011).
Changes are numbered by the printed parent chain. In names and notes the source's numbering stands.

B1: XPA23 Fab, heavy chain I51D (Fab, V domains shown)
VH: EVQLLESGGGLVQPGGSLRLSCAASGFTFSKYFMFWVRQAPGKGLEWVSVDSPSGGMTRYADSVKGRFTISRDNSKNTLYLQMNSLRAEDTAVYYCARVGYGGNSDYWGQGTLVTVSS
VL: DIQMTQSPSSVSASVGDRLTIICRASQDINRWLAWYQQTPGNAPKLLIHSATSLQSGVPSRFSGSGSGTDFTLTINSLQPEDFATYYCQQADSFPLTFGGGTKVEIK
B2: XPA23 Fab, heavy chain K31R (Fab, V domains shown)
VH: B1 VH with K31R, D51I
VL: B1 VL
B3: XPA23 Fab, heavy chain I51Y (Fab, V domains shown)
VH: B1 VH with D51Y
VL: B1 VL
B4: XPA23 Fab, heavy chain I51N (Fab, V domains shown)
VH: B1 VH with D51N
VL: B1 VL
B5: XPA23 Fab, heavy chain I51H (Fab, V domains shown)
VH: B1 VH with D51H
VL: B1 VL
B6: XPA23 Fab, heavy chain M57K (Fab, V domains shown)
VH: B1 VH with D51I, M57K
VL: B1 VL
B7: XPA23 Fab, heavy chain K31D (Fab, V domains shown)
VH: B1 VH with K31D, D51I
VL: B1 VL
B8: XPA23 Fab, heavy chain K31E (Fab, V domains shown)
VH: B1 VH with K31E, D51I
VL: B1 VL
B9: XPA23 Fab, heavy chain I51F (Fab, V domains shown)
VH: B1 VH with D51F
VL: B1 VL
B10: XPA23 Fab, heavy chain I51R (Fab, V domains shown)
VH: B1 VH with D51R
VL: B1 VL
B11: XPA23 Fab, heavy chain M57E (Fab, V domains shown)
VH: B1 VH with D51I, M57E
VL: B1 VL
B12: XPA23 Fab, heavy chain K31S (Fab, V domains shown)
VH: B1 VH with K31S, D51I
VL: B1 VL
B13: XPA23 Fab, heavy chain M57H (Fab, V domains shown)
VH: B1 VH with D51I, M57H
VL: B1 VL
B14: XPA23 Fab, heavy chain M57N (Fab, V domains shown)
VH: B1 VH with D51I, M57N
VL: B1 VL
B15: XPA23 Fab, heavy chain K31F (Fab, V domains shown)
VH: B1 VH with K31F, D51I
VL: B1 VL
B16: XPA23 Fab, heavy chain M57S (Fab, V domains shown)
VH: B1 VH with D51I, M57S
VL: B1 VL
B17: XPA23 Fab, heavy chain K31Q (Fab, V domains shown)
VH: B1 VH with K31Q, D51I
VL: B1 VL
B18: XPA23 Fab, heavy chain M57F (Fab, V domains shown)
VH: B1 VH with D51I, M57F
VL: B1 VL
B19: XPA23 Fab, heavy chain I51Q (Fab, V domains shown)
VH: B1 VH with D51Q
VL: B1 VL
B20: XPA23 Fab, heavy chain M57Q (Fab, V domains shown)
VH: B1 VH with D51I, M57Q
VL: B1 VL
B21: XPA23 Fab, heavy chain M57R (Fab, V domains shown)
VH: B1 VH with D51I, M57R
VL: B1 VL
B22: XPA23 Fab, heavy chain I51E (Fab, V domains shown)
VH: B1 VH with D51E
VL: B1 VL
B23: XPA23 Fab, heavy chain K31H (Fab, V domains shown)
VH: B1 VH with K31H, D51I
VL: B1 VL
B24: XPA23 Fab, heavy chain I51W (Fab, V domains shown)
VH: B1 VH with D51W
VL: B1 VL
B25: XPA23 Fab, heavy chain K31N (Fab, V domains shown)
VH: B1 VH with K31N, D51I
VL: B1 VL
B26: XPA23 Fab, heavy chain M57D (Fab, V domains shown)
VH: B1 VH with D51I, M57D
VL: B1 VL
B27: XPA23 Fab, heavy chain K31W (Fab, V domains shown)
VH: B1 VH with K31W, D51I
VL: B1 VL
B28: XPA23 Fab, heavy chain I51K (Fab, V domains shown)
VH: B1 VH with D51K
VL: B1 VL
B29: XPA23 Fab, heavy chain K31Y (Fab, V domains shown)
VH: B1 VH with K31Y, D51I
VL: B1 VL
B30: XPA23 Fab, heavy chain I51S (Fab, V domains shown)
VH: B1 VH with D51S
VL: B1 VL

The binders below were run against T1, IL-1beta (UniProt P01584 117-269) (assay: Biacore).
T1 construct: also called IL-1β

fold difference in affinity vs parental [fold]	binding result	Binder
0.07		B1
0.9		B2
1.75		B3
0.68		B4
0.08		B5
0.04		B6
0.04		B7
	no binding	B8
0.9		B9
0.1		B10
	no binding	B11
	no binding	B12
0.08		B13
0.03		B14
0.05		B15
0.04		B16
	no binding	B17
1.03		B18
0.83		B19
0.02		B20
0.06		B21
0.73		B22
1.11		B23
	no binding	B24
	no binding	B25
	no binding	B26
0.84		B27
0.11		B28
0.04		B29
0.69		B30
